The values below come from patent US20220372138A1 (IOMX THERAPEUTICS, published 2022).

Usually EC50 stands for the concentration at which the effect is half-maximal. As a reminder, the Kd is the equilibrium constant for the complex coming apart.

For one experiment, the target named is Streptavidin (UniProt P22629 37-163, limits assumed). Kind of experiment: Fab ELISA. (An ELISA detects its analyte on a solid surface through an enzyme-linked reagent.)
Experiment [1] deals with T1, ECD of cynomolgus monkey IGSF11, recombinant biotinylated (cynomolgus monkey, UniProt Q5DX21 23-241 (human entry)).
T1 construct: whole entry named
T1 chain: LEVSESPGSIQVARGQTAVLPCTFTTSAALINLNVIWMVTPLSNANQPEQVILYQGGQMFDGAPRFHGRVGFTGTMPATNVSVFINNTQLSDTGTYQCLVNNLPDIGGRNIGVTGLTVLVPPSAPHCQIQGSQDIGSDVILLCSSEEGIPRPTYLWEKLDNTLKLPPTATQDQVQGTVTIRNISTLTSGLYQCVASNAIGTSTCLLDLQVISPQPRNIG
Description: Fab ELISA.
Description: (§1) In order to identify IGSF11-specific binding ABPs, monoclonal Fabs expressed from E. coli were generated from the enriched set of anti-IGFS11 antibody-expressing phage. After bacterial lysis, the Fabs were tested for their binding properties and cross-reactivity profile on recombinant ECD-IGSF11 (human, mouse and cynomolgus monkey) by standard ELISA. Briefly, biotinylated recombinant ECD-IGSF11 from human, mouse, or cynomolgus monkey were immobilized at 2 ug/mL on a streptavidin-coated 384-well Maxisorp plate. The surface was blocked with 2% (w/v) skim milk powder in PBST. After three wash cycles with PBST, a bacterial lysate of each of the anti-IGSF11 Fabs in 2% (w/v) skim milk powder was applied to the immobilized IGSF11 and incubated for 1 h. After removing all unbound Fab by 3 wash cycles with PBST, bound Fab antibodies were detected with a goat anti-human Fab antibody conjugated with horseradish peroxidase. After three wash cycles with PBST the ELISA was developed with TMB substrate.

Experiment [2] concerns the target T2, ECD of murine IGSF11, recombinant biotinylated (mouse, UniProt P0C673 23-240).
T2 construct: whole entry named; also called Mouse IGSF11
T2 sequence: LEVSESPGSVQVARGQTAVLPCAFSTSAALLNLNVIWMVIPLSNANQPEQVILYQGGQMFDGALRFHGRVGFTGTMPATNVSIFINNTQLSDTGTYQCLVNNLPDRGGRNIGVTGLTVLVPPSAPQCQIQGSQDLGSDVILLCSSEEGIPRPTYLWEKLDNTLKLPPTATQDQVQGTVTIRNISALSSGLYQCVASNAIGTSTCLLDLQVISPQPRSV
Kind of experiment: Fab ELISA.
Description: as §1

The target of experiment [3] is T3, human IGSF11 (VSIG3) ECD, His-tagged (human, UniProt Q5DX21 23-241).
T3 construct: in part bought (SinoBiological 13094-H08H); also called HIS-IGSF11; IGSF11-HIS; not shown: His tag
T3 sequence: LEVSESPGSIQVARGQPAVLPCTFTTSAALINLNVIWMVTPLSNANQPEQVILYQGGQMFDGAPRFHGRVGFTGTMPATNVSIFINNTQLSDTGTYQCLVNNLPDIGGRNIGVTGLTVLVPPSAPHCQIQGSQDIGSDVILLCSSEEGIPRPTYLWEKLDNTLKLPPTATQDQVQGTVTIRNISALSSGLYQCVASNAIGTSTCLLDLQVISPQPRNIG
Description: IgG1 ELISA EC50 0.02-0.05 nM.

Experiment [4] addresses T2, ECD of murine IGSF11, recombinant …. Kind of experiment: ELISA RFU 0.5-1.0.
In experiment [5] the target is T4, extracellular domain (ECD) of human IGSF11 (VSIG3), recombinant (human, UniProt Q5DX21 23-241).
T4 construct: biotinylated where captured on streptavidin; tags of the reagent not always stated; also called IGSF11 (ECD domain); ECD-IGSF11
T4 sequence: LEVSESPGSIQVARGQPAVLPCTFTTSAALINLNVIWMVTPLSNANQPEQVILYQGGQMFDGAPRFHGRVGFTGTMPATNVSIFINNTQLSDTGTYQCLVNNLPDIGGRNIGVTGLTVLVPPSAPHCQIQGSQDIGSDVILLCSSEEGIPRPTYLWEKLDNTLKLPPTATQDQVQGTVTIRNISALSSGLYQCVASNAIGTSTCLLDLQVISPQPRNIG
Description: ELISA RFU>1.0.

The target in experiment [6] is T2, ECD of murine IGSF11, recombinant …. Description: ELISA RFU>1.0.
The target of experiment [7] is T3, human IGSF11 (VSIG3) ECD, His-tagged. Kind of experiment: IgG1 ELISA EC50 <0.02 nM.
For experiment [8], the target named is T5, human IGSF11 (VSIG3) expressed on cells (human, UniProt Q5DX21 23-431).
T5 sequence: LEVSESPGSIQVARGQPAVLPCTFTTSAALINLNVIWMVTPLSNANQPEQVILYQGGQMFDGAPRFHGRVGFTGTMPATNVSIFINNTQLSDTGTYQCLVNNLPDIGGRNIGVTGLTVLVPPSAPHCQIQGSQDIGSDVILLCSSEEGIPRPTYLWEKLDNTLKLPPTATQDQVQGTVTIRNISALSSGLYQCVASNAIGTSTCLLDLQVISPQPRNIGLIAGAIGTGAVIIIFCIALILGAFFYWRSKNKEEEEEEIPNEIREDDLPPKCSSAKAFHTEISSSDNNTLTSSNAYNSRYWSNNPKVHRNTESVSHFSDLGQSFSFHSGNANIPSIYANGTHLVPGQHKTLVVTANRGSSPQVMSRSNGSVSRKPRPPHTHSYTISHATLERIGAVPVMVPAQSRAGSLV
Kind of experiment: IgG1 FACS DMS 273.

In experiment [9] the target is T4, extracellular domain (ECD) of human …. Kind of experiment: SPR. For orientation: In SPR one partner is held on a chip, and binding of the other changes the refractive index at the surface.
In experiment [10] the target is T5, human IGSF11 (VSIG3) expressed on cells. Kind of experiment: IgG1 FACS HEK-OE.
Experiment [11] shares this target. Description: FACS, DMS 273 cells with scrambled control siRNA (SC). (In flow cytometry, cells or beads pass a laser one at a time.)
Experiment [12] has the same target. Kind of experiment: FACS, M579-A2-luc cells with IGSF11 siRNA (KD, knock-down control).
Experiment [13] has the same target. Description: FACS, M579-A2-luc cells with scrambled control siRNA (SC).
Experiment [14] has the same target. Kind of experiment: FACS, DMS 273 cells with IGSF11 siRNA (KD, knock-down control).

Chain of Streptavidin (P22629 37-163 limits assumed): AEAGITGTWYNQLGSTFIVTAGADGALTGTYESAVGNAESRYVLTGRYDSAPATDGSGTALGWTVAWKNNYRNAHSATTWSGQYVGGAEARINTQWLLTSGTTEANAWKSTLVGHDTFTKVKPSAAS
Description for Streptavidin: as §1

B1: C-010 (Fab format) (Fab, V domains shown)
VH: QVQLVQSGAEVKKPGSSVKVSCKASGGTFSSYAISWVRQAPGQGLEWMGGIIPIFGTANYAQKFQGRVTITADESTSTAYMELSSLRSEDTAVYYCARGYGEYYPAFDVWGQGTLVTVSS
VL: SYELTQPPSVSVSPGQTASITCSGDKLGDKYASWYQQKPGQSPVLVIYQDSKRPSGIPERFSGSNSGNTATLTISGTQAEDEADYYCASYAHTHSTWVFGGGTKLTVL
notes: Fab from E. coli lysate
With B1, the A450 with Streptavidin was less than 0.1; in experiment [1], less than 1; in experiment [2], less than 1.

B2: A-033 (IgG1 format) (antibody, V domains shown)
VH: QVQLVQSGAEVKKPGASVKVSCKASGYTFTSYGISWVRQAPGQGLEWMGWISAYNGNTNYAQKLQGRVTMTTDTSTSTAYMELRSLRSDDTAVYYCARDHSIVGATTFDYWGQGTLVTVSS
VL: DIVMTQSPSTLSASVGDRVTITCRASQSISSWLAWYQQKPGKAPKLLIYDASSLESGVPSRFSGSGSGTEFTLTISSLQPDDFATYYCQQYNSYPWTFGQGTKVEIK
notes: human IgG1 format
Regarding B2, the concentration giving a half-maximal response (EC50) in experiment [3] lay in the range of 0.02 to 0.05 nM.

B3: C-006 (Fab format) (Fab, V domains shown)
VH: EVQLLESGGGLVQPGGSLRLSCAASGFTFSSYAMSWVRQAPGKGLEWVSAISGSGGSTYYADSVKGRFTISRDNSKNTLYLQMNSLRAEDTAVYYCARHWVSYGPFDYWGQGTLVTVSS
VL: DIQMTQSPSSLSASVGDRVTITCRASQSISSYLNWYQQKPGKAPKLLIYAASSLQSGVPSRFSGSGSGTDFTLTISSLQPEDFATYYCQQSHQSPPITFGQGTKVEIK
notes: Fab from E. coli lysate
On to B3, for which the A450 in experiment [1] is less than 1.

B4: C-012 (Fab format) (Fab, V domains shown)
VH: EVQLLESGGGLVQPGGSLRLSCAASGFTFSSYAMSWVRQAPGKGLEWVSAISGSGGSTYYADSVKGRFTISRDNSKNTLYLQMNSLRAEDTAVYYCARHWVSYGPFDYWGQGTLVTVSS
VL: DIQMTQSPSSLSASVGDRVTITCRASQSISSYLNWYQQKPGKAPKLLIYAASSLQSGVPSRFSGSGSGTDFTLTISSLQPEDFATYYCQQSHQSPPITFGQGTKVEIK
notes: Fab from E. coli lysate
B4: the A450 in [1] is less than 1.

B5: A-019 (scFv format) (scFv, V domains shown)
VH: QVQLVQSGAEVKKPGASVKVSCKASGYTFTGYYMHWVRQAPGQGLEWMGWINPNSGNTGYAQKFQGRVTMTRNTSISTAYMELSSLRSEDTAVYYCARGGQQQLVLDDYWGQGTLVTVSS
VL: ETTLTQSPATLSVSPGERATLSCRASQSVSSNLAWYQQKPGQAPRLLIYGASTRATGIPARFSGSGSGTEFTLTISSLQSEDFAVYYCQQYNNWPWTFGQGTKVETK
notes: scFv
As to B5, the “ELISA binding signal (RFU)” value is 0.5 to 1 rfu in experiment [4] and greater than 1 rfu in experiment [5].

B6: A-001 (scFv format) (scFv, V domains shown)
VH: EVQLVESGGGLVKPGGSLRLSCAASGFTFSSYSMNWVRQAPGKGLEWVSSISSSSSYIYYADSVKGRFTISRDNAKNSLYLQMNSLRAEDTAVYYCVRSIIVQALGITSVFDIWGQGTMVTVSS
VL: AIRLTQSPSSLSASVGDRVTISCRASQIISNHLNWYQQKPGKAPKLLIYAASRLQTGVPSRFSGSGSETDYTLTISSLQPEDFATYYCQQSYSNPRTFGHGTKVEIK
notes: scFv
Take B6: the “ELISA binding signal (RFU)” value in experiment [5] and in experiment [6] was greater than 1 rfu in each case.

B7: A-013 (IgG1 format) (antibody, V domains shown)
VH: EVQLVESGGGLIQPGGSLRLSCAASGFTVSSNYMSWVRQAPGKGLEWVSVIYSGGSTYYADSVKGRFTISRDNSKNTLYLQMNSLRAEDTAVYYCARGNPYYYGDLQVNFDYWGQGTLVTVSS
VL: QAVVTQEPSLTVSPGGTVTLTCASSTGAVTSAYYPNWFQQKPGQAPRALIYSTSNKHSWTPARFSGSLLGGKAALTLSGVQPEDEADYYCLLYYGGAWVFGGGTKLTVL
notes: human IgG1 format
Regarding B7, the values for the EC50 in [7], in experiment [8] and in experiment [10] were less than 0.02 nM, greater than 50 nM and 10 to 50 nM, respectively. The dissociation constant Kd in [9] was 100 to 250 nM.

B8: A-026 (scFv format) (scFv, V domains shown)
VH: QVQLQESGPGLVKPSQTLSLTCTVSGGSISSGGYYWSWIRQHPGKGLEWIGYIYYSGSTYYNPSLKSRVTISVDTSKNQFSLKLSSVTAADTAVYYCASWSLGTSNHGWFDPWGQGTLVTVSS
VL: QSVLTQPPSASGTPGQRVTISCSGSSSNIGSNTVNWYQQLPGTAPKLLISDNNNRPSGVPDRFSGSKSGTSASLAITGLQAEDEADYYCQSYDSNLSGWVFGGGTKLTVL
notes: scFv
For the molecule B8, the “ELISA binding signal (RFU)” value in experiment [5] and in [6] was greater than 1 rfu throughout.

B9: A-016 (scFv format) (scFv, V domains shown)
VH: QVQLQESGAEVKKPGASVKVSCKASGYTFTGYYMHWVRQAPGQGLEWMGGIIPIFGTANYAQKFQGRVTITADESTSTAYMELSSLRSEDTAVYYCAGAGMELTRSGAYYYYGMDVWGQGTTVTVSS
VL: QSALTQPASVSGSPGQSITISCTGTSSDIGGYTFVSWYQQHPGKAPKVMIHDVNNRPSGISNRFSGSKSGNTASLTISGLQAEDEADYYCSSVTSTNTYVFGTGTKVTVL
notes: scFv
For the molecule B9, the “ELISA binding signal (RFU)” value was 0.5 to 1 rfu in experiment [4] and greater than 1 rfu in experiment [5].

B10: A-008 (IgG1 format) (antibody, V domains shown)
VH: QLQLQESGPGLVKPSETLSLTCTVSGGSISSSGYYWGWIRQPPGKGLEWIGSIYYSGSTYYNPSLKSRVTISVDTSKNQFSLKLSSVTAADTAVYYCARHRVRFGEFDAFDIWGQGTMVTVSS
VL: QAVLTQPPSVSGAPGERVTLSCTGTSSNVGADFDVHWYQQFPGTAPRLLIFGSDNRPSGVPDRFSGSKSGTSASLAITGLQVEDEADYYCQAYDVRLSGWVFGGGTKLTVL
notes: human IgG1 format
In experiment [3], B10 registered a 50% effective concentration (EC50) of 0.02 to 0.05 nM.

B11: A-008 (scFv format) (scFv, V domains shown)
VH: QLQLQESGPGLVKPSETLSLTCTVSGGSISSSGYYWGWIRQPPGKGLEWIGSIYYSGSTYYNPSLKSRVTISVDTSKNQFSLKLSSVTAADTAVYYCARHRVRFGEFDAFDIWGQGTMVTVSS
VL: QAVLTQPPSVSGAPGERVTLSCTGTSSNVGADFDVHWYQQFPGTAPRLLIFGSDNRPSGVPDRFSGSKSGTSASLAITGLQVEDEADYYCQAYDVRLSGWVFGGGTKLTVL
notes: scFv
On to B11, for which the “ELISA binding signal (RFU)” value in [5] and in experiment [6] was greater than 1 rfu each time.

B12: A-007 (IgG1 format) (antibody, V domains shown)
VH: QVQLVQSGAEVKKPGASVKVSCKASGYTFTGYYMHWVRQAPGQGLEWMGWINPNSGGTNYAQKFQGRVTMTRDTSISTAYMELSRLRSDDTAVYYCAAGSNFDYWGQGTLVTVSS
VL: QSALTQPASVSGSPGQSITIACTGSSSDIGSFSYVSWYQQRPGKAPTLIIYGVNNRPLGVSRRFSGSKSGNTASLSISGLQAEDEADYYCSSYTRRSTVIFGGGTKLTVL
notes: human IgG1 format
Take B12: the “% binding (FACS heat-map)” value in experiment [11] stood at 82.3%; in experiment [12] it was 9.15%; in experiment [13] it was 65.6%; in experiment [14], 34.2%. The 50% effective concentration (EC50) in experiment [7] is less than 0.02 nM; in [8], less than 10 nM; in experiment [10], less than 10 nM.

B13: A-034 (scFv format) (scFv, V domains shown)
VH: QMQLVQSGGGLVKPGGSLRLSCAASGFTFSSYTMNWVRQAPGKGLEWVSSISSIGTYIYYADSVKGRFTISRDNAKNSLYLQMNSLRAEDTAVYYCARVLLSGSYYGYFDSWGQGTLVTVSS
VL: QSVLTQPPSVSGAPGQRVTISCTGSSSNIGAGYDVHWYQQLPGTAPKLFIYGNSNRPSGVPDRFSGSKSGTSASLAITGLQAEDEADYYCQSYDSSLSGYVFGTGTKVTVL
notes: scFv
As for B13, the entries for the “ELISA binding signal (RFU)” value in experiment [4] and in experiment [5] were 0.5 to 1 rfu and greater than 1 rfu, respectively.
